Laboratory results taken from patent US20130072665A1.
Values belong to the binder of their own block, whether it stands above or below them.

Key:
[1] = biological target: cynomolgus monkey PCSK9 (cynomolgus monkey); assay: BIAcore solution equilibrium
[2] = biological target: cynomolgus monkey PCSK9 (cynomolgus monkey); assay: BIAcore solution equilibrium, % free cPCSK9 against [21B12]; rightmost of four curves; cPCSK9 concentration not given
[3] = biological target: cynomolgus monkey PCSK9 (cynomolgus monkey); assay: BIAcore solution equilibrium, % free cPCSK9 against [21B12]; third of four curves; cPCSK9 concentration not given
[4] = biological target: cynomolgus monkey PCSK9 (cynomolgus monkey); assay: BIAcore solution equilibrium, % free cPCSK9 against [21B12]; second of four curves; cPCSK9 concentration not given
[5] = biological target: cynomolgus monkey PCSK9 (cynomolgus monkey); assay: BIAcore solution equilibrium, % free cPCSK9 against [21B12]; leftmost of four curves; cPCSK9 concentration not given
[6] = biological target: cynomolgus monkey PCSK9 (cynomolgus monkey); assay: BIAcore, antibody immobilised, pH 7.4
[7] = biological target: cynomolgus monkey PCSK9 (cynomolgus monkey); assay: BIAcore solution equilibrium, column To Cyno PCSK9
[8] = biological target: cynomolgus monkey PCSK9 (cynomolgus monkey); assay: KinExA solution equilibrium

Kd [1]: 0.011 nM
IC50 (read off the curve) [2]: 0.2 nM
IC50 (read off the curve) [3]: 0.09 nM
IC50 (read off the curve) [4]: 0.03 nM
IC50 (read off the curve) [5]: 0.02 nM
Kd [6]: 0.36 nM
B1: 21B12, anti-PCSK9 huIgG4 (antibody, V domains shown)
VH: QVQLVQSGAEVKKPGASVKVSCKASGYTLTSYGISWVRQAPGQGLEWMGWVSFYNGNTNYAQKLQGRGTMTTDPSTSTAYMELRSLRSDDTAVYYCARGYGMDVWGQGTTVTVSS
VL: QSALTQPASVSGSPGQSITISCTGTSSDVGGYNSVSWYQQHPGKAPKLMIYEVSNRPSGVSNRFSGSKSGNTASLTISGLQAEDEADYYCNSYTSTSMVFGGGTKLTVLQ

Kd [7]: 0.12 nM
B2: 23B5 (antibody, V domains shown)
VH: EVQLLESGGGLVQPGGSLRLSCAASGFTFSSYAMNWVRQAPGKGLEWVSTISGSGDNTYYADSVKGRFTISRDNSKNTLYLQMNSLRAEDTAVYYCAKKFVLMVYAMLDYWGQGTLVTVSS
VL: DILMTQSPSSLSASVGDRVTITCRASQSISSYLNWYQQKPGKAPKVLIYAASSLQSGVPSRFSGSGSGTDFTLTINSLQPEDFATYYCQQSYSSPITFGQGTRLEIK

Kd [8]: 0.016 nM
Kd [6]: 0.87 nM
B3: 16F12, anti-PCSK9 huIgG4 (antibody, V domains shown)
VH: QVHLVESGGGVVQPGRSLRLSCAASGFTFNSFGMHWVRQAPGKGLEWVALIWSDGSDEYYADSVKGRFTISRDNSKNTLYLQMNSLRAEDTAVYYCARAIAALYYYYGMDVWGQGTTVTVSS
VL: QSVLTQPPSVSAAPGQKVTISCSGSSSNIGNNFVSWYQQLPGTAPKLLIYDYNKRPSGIPDRFSGSKSGTSATLGITGLQTGDEADYYCGTWDSSLSAYVFGTGTRVTVLQ
